Source: patent US20060058504A1, “Peptides capable of inducing attraction to the axonal growth and their use for treating neurodegenerative diseases” (Centre National de la Recherche Scientific (CNRS), priority 2002, published 2006)
Like-named read-outs stand apart in the source and are kept apart here.

Legend:
Plexin-A1 = Plexin-A1 (Homo sapiens, UniProt Q9UIW2); test: Binding of L1Fc to Plexin-A1 expressing COS7 cells (immunofluorescence)
[1] = tested on: cortical axons repelled by Sema3A secreted from the ventral spinal cord; test: Co-culture of cortical slices and ventral spinal cord explants (axon guidance response to Sema3A); type: cell-based, mice
In short: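 Cortical slices from P0–P2 mice were co-cultured in a 3D plasma clot with ventral cervical spinal cord explants, alone or with L1Fc chimeras (3 μg/ml), ODQ (10^−5 M) or 7NI ([…]). After 1–2 DIV and PFA fixation, guidance was scored from −2 (repulsion) to +2 (attraction). Axon number and the three longest fibre lengths were measured in proximal and distal 600 μm regions.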

full length human L1 = molecular target: T1, full length human L1 (Homo sapiens, UniProt P32004); test: Binding of L1Fc chimeras to COS cells expressing wild-type L1 (immunofluorescence)
T1 construct: transiently transfected with expression vectors encoding full length human L1; expressed in transfected cells; host or cells: COS7
T1 sequence (P32004 20-1257): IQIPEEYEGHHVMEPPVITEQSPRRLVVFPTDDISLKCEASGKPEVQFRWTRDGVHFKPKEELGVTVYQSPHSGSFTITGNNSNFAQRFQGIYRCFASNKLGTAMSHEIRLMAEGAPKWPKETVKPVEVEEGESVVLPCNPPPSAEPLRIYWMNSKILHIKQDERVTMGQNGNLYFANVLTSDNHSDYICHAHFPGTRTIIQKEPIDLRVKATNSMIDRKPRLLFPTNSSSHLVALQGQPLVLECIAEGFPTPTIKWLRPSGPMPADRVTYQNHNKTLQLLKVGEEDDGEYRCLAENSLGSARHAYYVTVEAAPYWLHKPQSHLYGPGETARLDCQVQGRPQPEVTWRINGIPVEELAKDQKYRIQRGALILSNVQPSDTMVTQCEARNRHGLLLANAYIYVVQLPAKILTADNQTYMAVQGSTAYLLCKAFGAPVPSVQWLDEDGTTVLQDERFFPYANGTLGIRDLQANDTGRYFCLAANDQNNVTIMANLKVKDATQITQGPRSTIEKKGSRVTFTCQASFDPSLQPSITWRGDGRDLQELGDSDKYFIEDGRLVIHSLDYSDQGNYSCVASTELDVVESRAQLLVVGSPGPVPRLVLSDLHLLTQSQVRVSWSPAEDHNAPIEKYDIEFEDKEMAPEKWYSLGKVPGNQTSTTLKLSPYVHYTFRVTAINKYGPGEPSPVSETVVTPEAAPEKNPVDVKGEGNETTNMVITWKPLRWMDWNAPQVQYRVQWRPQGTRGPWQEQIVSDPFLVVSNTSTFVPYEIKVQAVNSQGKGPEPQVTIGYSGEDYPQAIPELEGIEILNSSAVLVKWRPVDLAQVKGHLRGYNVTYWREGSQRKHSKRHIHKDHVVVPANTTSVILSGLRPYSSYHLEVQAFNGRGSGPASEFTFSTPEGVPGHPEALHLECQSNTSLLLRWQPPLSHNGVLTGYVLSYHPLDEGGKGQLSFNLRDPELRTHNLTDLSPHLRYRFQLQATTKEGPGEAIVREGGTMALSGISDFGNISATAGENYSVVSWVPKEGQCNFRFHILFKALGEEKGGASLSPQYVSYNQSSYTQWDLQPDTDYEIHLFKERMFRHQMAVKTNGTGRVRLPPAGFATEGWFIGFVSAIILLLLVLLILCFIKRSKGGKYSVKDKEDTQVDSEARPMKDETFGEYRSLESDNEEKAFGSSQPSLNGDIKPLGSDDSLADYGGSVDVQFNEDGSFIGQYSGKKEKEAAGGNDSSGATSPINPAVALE

[2] = Ctx/vSC co-culture, growth away from spinal cord explant, L1Fc 3 μg/ml, ODQ 10^−5 M
[3] = Ctx/vSC co-culture, growth towards spinal cord explant, L1Fc 3 μg/ml, ODQ 10^−5 M

Plexin-A1, sequence (Q9UIW2 27-1896, species assumed): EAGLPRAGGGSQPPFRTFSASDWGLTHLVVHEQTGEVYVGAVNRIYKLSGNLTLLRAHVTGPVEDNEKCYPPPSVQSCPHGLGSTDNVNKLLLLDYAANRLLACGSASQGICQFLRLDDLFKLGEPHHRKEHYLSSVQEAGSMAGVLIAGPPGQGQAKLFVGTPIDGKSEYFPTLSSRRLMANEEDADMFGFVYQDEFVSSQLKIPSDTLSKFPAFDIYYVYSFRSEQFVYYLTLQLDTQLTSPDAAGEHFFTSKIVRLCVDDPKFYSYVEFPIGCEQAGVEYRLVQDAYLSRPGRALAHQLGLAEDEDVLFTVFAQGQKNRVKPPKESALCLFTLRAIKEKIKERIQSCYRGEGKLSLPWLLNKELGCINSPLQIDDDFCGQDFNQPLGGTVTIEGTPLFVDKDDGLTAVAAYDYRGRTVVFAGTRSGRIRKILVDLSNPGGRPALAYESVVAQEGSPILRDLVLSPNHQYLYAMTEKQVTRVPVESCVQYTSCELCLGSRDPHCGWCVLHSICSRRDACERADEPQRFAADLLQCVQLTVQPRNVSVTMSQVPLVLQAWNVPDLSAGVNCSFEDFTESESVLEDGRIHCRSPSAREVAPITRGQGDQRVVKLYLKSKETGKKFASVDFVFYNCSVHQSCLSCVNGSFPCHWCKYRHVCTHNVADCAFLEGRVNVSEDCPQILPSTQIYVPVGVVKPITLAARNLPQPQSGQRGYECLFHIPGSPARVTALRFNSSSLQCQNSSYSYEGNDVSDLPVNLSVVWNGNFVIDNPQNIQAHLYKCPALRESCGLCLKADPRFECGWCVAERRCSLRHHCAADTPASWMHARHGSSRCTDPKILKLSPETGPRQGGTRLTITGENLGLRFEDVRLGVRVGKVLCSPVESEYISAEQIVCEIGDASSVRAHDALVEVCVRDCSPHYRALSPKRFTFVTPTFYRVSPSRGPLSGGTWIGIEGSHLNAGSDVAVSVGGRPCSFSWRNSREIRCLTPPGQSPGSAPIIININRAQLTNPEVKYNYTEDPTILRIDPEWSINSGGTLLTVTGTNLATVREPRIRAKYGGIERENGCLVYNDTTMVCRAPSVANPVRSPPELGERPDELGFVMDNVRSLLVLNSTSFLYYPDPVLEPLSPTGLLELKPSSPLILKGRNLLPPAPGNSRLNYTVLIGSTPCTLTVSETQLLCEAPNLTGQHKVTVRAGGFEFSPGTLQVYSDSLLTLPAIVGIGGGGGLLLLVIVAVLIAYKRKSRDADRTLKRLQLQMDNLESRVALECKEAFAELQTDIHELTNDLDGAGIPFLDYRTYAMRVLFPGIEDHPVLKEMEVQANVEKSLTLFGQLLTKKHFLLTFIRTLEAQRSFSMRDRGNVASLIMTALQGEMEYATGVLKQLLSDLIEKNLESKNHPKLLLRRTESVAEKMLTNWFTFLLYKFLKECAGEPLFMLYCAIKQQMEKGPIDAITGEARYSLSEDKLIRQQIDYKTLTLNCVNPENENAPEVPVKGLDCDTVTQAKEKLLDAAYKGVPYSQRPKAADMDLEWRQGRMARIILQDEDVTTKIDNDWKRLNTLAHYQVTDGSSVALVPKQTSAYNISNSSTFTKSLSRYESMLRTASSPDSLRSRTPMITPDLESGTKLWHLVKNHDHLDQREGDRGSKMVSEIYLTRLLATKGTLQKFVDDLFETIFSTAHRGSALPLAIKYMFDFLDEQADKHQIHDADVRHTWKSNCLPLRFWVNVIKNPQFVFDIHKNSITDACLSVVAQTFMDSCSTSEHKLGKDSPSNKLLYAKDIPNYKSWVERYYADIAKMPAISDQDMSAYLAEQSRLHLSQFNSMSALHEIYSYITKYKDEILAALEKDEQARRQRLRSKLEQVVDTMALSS

B1: L1Fc: soluble wild-type L1Fc chimeric protein (protein)
chain: IQIPEEYEGHHVMEPPVITEQSPRRLVVFPTDDISLKCEASGKPEVQFRWTRDGVHFKPKEELGVTVYQSPHSGSFTITGNNSNFAQRFQGIYRCFASNKLGTAMSHEIRLMAEGAPKWPKETVKPVEVEEGESVVLPCNPPPSAEPLRIYWMNSKILHIKQDERVTMGQNGNLYFANVLTSDNHSDYICHAHFPGTRTIIQKEPIDLRVKATNSMIDRKPRLLFPTNSSSHLVALQGQPLVLECIAEGFPTPTIKWLRPSGPMPADRVTYQNHNKTLQLLKVGEEDDGEYRCLAENSLGSARHAYYVTVEAAPYWLHKPQSHLYGPGETARLDCQVQGRPQPEVTWRINGIPVEELAKDQKYRIQRGALILSNVQPSDTMVTQCEARNRHGLLLANAYIYVVQLPAKILTADNQTYMAVQGSTAYLLCKAFGAPVPSVQWLDEDGTTVLQDERFFPYANGTLGIRDLQANDTGRYFCLAANDQNNVTIMANLKVKDATQITQGPRSTIEKKGSRVTFTCQASFDPSLQPSITWRGDGRDLQELGDSDKYFIEDGRLVIHSLDYSDQGNYSCVASTELDVVESRAQLLVVGSPGPVPRLVLSDLHLLTQSQVRVSWSPAEDHNAPIEKYDIEFEDKEMAPEKWYSLGKVPGNQTSTTLKLSPYVHYTFRVTAINKYGPGEPSPVSETVVTPEAAPEKNPVDVKGEGNETTNMVITWKPLRWMDWNAPQVQYRVQWRPQGTRGPWQEQIVSDPFLVVSNTSTFVPYEIKVQAVNSQGKGPEPQVTIGYSGEDYPQAIPELEGIEILNSSAVLVKWRPVDLAQVKGHLRGYNVTYWREGSQRKHSKRHIHKDHVVVPANTTSVILSGLRPYSSYHLEVQAFNGRGSGPASEFTFSTPEGVPGHPEALHLECQSNTSLLLRWQPPLSHNGVLTGYVLSYHPLDEGGKGQLSFNLRDPELRTHNLTDLSPHLRYRFQLQATTKEGPGEAIVREGGTMALSGISDFGNISATAGENYSVVSWVPKEGQCNFRFHILFKALGEEKGGASLSPQYVSYNQSSYTQWDLQPDTDYEIHLFKERMFRHQMAVKTNGTGRVRLPPAGFATE
modifications: left off: a dimerising Fc or GST
notes: soluble wild-type L1Fc chimeric protein
binding to Plexin-A1 expressing cells (Plexin-A1): no binding to Plexin-A1 expressing cells | binding to Plexin-A1 expressing cells (Plexin-A1; listed as Wild-type L1 Fc): not Plexin-A 1-expressing cells | Axonal length, Away [1, 2]: 198.6 +/− 4 | Number of axons, Away [1, 2]: 5.8 +/− 0.7 | Axonal length, Towards [1, 3]: 346.8 +/− 5, * | Number of axons, Towards [1, 3]: 22.6 +/− 1.6, * | switching of Sema3A repulsion to attraction by L1Fc chimera ([1]; chimera 3 μg/ml in culture medium): switched repulsion to attraction | guidance index ([1]; qualitative index from −2 (repulsion) to +2 (attraction), L1Fc chimeras 3 μg/ml, ODQ 10^−5M): +1.5 | binding to wild-type L1 expressed in COS cells (full length human L1): clear binding | binding to wild-type L1 expressed in COS cells (full length human L1; listed as Wild-type L1 Fc): bound to L1
